Where a chain is given by its changes, count along the chain named.
Experiments:
Assay in all cases: Ni-NTA pull-down with immunoblot quantification (ImageJ)
Settings in all cases: chain shown with the change; U2OS UNC45A-KO cells cotransfected; 5 independent experiments; parent: est. 1; read off a plot
[1] = target: T1, His-tagged UNC45A p.Leu237Pro mutant, Q9H3U1-1
T1 chain: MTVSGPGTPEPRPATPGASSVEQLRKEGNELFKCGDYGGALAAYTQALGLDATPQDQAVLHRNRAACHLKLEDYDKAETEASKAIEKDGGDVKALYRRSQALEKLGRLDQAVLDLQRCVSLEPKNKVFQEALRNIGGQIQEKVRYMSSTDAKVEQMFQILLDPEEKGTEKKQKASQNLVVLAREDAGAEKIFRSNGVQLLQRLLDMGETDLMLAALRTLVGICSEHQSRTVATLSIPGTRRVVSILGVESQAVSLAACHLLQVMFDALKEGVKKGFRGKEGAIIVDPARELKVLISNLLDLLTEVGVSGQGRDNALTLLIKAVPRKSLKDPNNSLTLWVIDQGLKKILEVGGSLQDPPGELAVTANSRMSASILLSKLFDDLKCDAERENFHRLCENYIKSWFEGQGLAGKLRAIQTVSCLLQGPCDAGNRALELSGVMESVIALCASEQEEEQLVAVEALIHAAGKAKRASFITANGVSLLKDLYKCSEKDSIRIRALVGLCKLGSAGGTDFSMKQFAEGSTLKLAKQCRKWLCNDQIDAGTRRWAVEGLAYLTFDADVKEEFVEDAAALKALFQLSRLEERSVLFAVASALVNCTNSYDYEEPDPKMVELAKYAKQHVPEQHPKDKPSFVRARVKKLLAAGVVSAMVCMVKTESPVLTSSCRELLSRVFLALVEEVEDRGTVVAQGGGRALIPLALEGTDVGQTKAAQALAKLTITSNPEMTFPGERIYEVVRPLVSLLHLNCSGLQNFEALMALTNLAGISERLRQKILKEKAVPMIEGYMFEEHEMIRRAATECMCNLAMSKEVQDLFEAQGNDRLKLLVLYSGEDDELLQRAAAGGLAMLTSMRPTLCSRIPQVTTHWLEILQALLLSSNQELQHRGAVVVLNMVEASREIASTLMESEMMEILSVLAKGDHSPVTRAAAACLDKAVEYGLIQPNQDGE

[2] = target: T2, HA-tagged UNC45A wild-type (Unc-45 myosin chaperone A), Q9H3U1-1
T2 chain: T1 chain with P237L

[3] = target: T3, His-tagged UNC45A wild-type, Q9H3U1-1
T3 chain: T1 chain with P237L

B1: m1 (prey) and m3 (bait) p.Leu237Pro (HA-tagged prey); p.Leu237Pro (His-tagged bait) (protein)
chain: T1 chain
[1]
  ratio to parent: 12 fold change

B2: His-tagged UNC45A wild-type, Q9H3U1-1 p.Leu237Pro (protein)
chain: T1 chain
[2]
  ratio to parent: 2.2 fold change

B3: HA-tagged UNC45A wild-type (Unc-45 myosin chaperone A), Q9H3U1-1 p.Leu237Pro (protein)
chain: T1 chain
[3]
  ratio to parent: 1.6 fold change
